Series [1] has as its system Chang hepatoma cells. In words: Monocyte/Macrophage Cytotoxicity Assay to cell line (51Cr release). To be noted: peripheral blood monocytes from cancer patients; activator + Indomethacin (up to 5 ng/ml).
The subject of series [2] is peritoneal macrophages. Nature of the series: In vitro stimulation of protease peptone peritoneal macrophages: TNF (ELISA). Format: cell-based, C57BL/6 mice. To be noted: stimulant alone; 24 hours of in vitro culture. The procedure:
(§1) Peritoneal macrophages were harvested from C57BL/6 mice 72 hours after intraperitoneal injection of 1.5 ml of 4% protease peptone. The macrophages were then stimulated in vitro with medium alone, 50 ng LPS, or VIRULIZIN™. Measurements of the stimulation was done with respect to TNF (by ELISA) and NO (by spectrophotometric assay using the Greiss reagent) levels in duplicate experiments. Standard error of the mean between duplicate experiments was less than 10%. […] Nitric oxide production was zero.
In vitro synergy of Virulizin™ with LPS for TNF-α release was also addressed. Peritoneal macrophages were harvested from C57BL/6 mice after the same aforementioned treatment. The macrophages were then stimulated with 50 ng LPS alone or LPS with different dilutions of VIRULIZIN™. As above, TNF was determined via ELISA. As noted in Table XIX, LPS alone induces about 2900 pg/ml of TNF-α release from mouse peritoneal macrophages in vitro compared to 262 pg/ml for medium. When LPS is combined with VIRULIZIN™, there is about an 800 pg/ml increase in TNF-alpha release at dilutions of VIRULIZIN™ 1:5 and 1:10 and enhanced release to at least 1:40.
In vitro synergy of Virulizin™ with IFN-γ for TNF-α release was studied, using the same peritoneal mouse macrophages derived from C57BL/6 mice treated as above. […] The same macrophages stimulated with either LPS or IFN-γ release almost 3000 pg/ml of TNF-α. […]

For series [3], the system named is peritoneal macrophages. In words: In vitro stimulation of protease peptone peritoneal macrophages: NO (Greiss reagent). The class given is cell-based, C57BL/6 mice. To be noted: stimulant alone. The procedure: as §1
In vitro synergy of Virulizin™ with LPS for nitric oxide (NO) was addressed in the same procedure as above, except NO was determined in the supernatant of the treated macrophages. As above, the assay for NO is spectrophotometric and uses a Greiss reagent. As noted in the table above, LPS causes some release of NO (9 μm). VIRULIZIN™ in synergy with LPS induces a marked increase in NO production (13-27 μm) to dilutions of 1:40.
In vitro synergy of Virulizin™ with IFN-γ for NO release was studied, using the same peritoneal mouse macrophages derived from C57BL/6 mice treated as above. The data are included in the table above concerning “Synergistic Combinations.” As shown, LPS and IFN-γ alone each enhanced NO production (9 and 7 μm, respectively). VIRULIZIN™ added to IFN-γ induced a marked increase in NO production (47-57 μm) that almost equaled the combination of LPS and IFN-γ (74 μM). […]

For series [4], the system named is peritoneal macrophages. In words: TNF release from macrophages harvested from treated mice. The class given is in vivo, C57BL/6 mice. To be noted: mice injected with nothing; in vitro stimulant IFN-γ, 24 hours. The procedure:
(§2) In vivo production of TNF-α over 72 hours was studied on macrophages harvested from C57BL/6 mice that, prior to harvest, were treated with nothing, injected intraperitoneally 72 hours previously with 1.5 and 4% protease peptone, or injected intraperitoneally 72, 48, or 24 hours previously with 1.0 ml Virulizin™ diluted 1:10 in PBS. The macrophage monolayers were treated in vitro for 24 hours with IFN-γ (50 μ/ml), LPS only (5 ng/ml), or the combination thereof. TNF and NO were determined as recited above.
As described, the release of TNF-α from macrophages was examined in the absence of a stimulus or with IFN-γ, LPS, or LPS/IFN-γ after 24 hrs in vitro culture. […] Likewise, there was a synergistic effect of LPS and IFN-γ on harvested macrophages that were stimulated 24 and 48 hrs but not 72 hrs before testing.

The subject of series [5] is peritoneal macrophages. Nature of the series: NO release from macrophages harvested from treated mice. The class given is in vivo, C57BL/6 mice. To be noted: mice injected with nothing; in vitro stimulant IFN-γ. On the procedure:
as §2
In vivo production of NO over 72 hrs was studied with macrophage cells and tests under the same conditions described above with respect to TNF-α production. There was a small spontaneous release of NO measured at 24 and 48 hrs after intraperitoneal injection of VIRULIZIN™ (hereinafter IP Virulizin™). […] The harvested macrophages that had received IP VIRULIZIN™ 72 hrs before responded no differently than macrophages that had no VIRULIZIN™ pretreatment. […] The maximum response was with macrophages pretreated with VIRULIZIN™ 48 hrs before harvesting and testing.

In series [6] the test system is Chang hepatoma cells.
Experimental: This procedure has been named the “Monocyte/Macrophage Cytotoxicity Assay to Cell Lines and Autologous Tumor Cells,” or “Cytotoxicity Assay” for short.
The method requires isolation of monocytes/macrophages phages, which is accomplished as follows: Venous blood is collected aseptically in heparinized Vacutainer tubes. Sterile preservative-free heparin is added to a final concentration of 20 units/ml. The blood is diluted 3:1 in Hanks balanced salt solution (HBSS), layered onto lymphocyte separation medium and centrifuged to obtain a band of peripheral blood mononuclear cells (PBMNs). After centrifugation, the mononuclear cell layer is recovered from the interface, washed twice in medium (medium is Roswell Park Memorial Institute [RPMI] 1640 media supplemented with 10% heat-inactivated fetal bovine serum, 50 units/ml penicillin, and 50 μg/ml streptomycin) and monocytes are enumerated by latex ingestion. Monocytes are isolated by adherence in 96-well plastic plates (for 2 hours at 37° C., followed by two cycles of washing with medium). […]
For studies using a standard cell line, ^51Cr (chromium) labelled Chang hepatoma cells are used because this cell line is insensitive to natural killer cell cytotoxicity. […] After 24 hours, supernatants are collected and ^51Cr release is quantitated. The percent specific cytotoxicity is calculated as: [formula] […]

Where two headings read alike, the source gives them in different places.

Experimental for autologous tumor cells: The method requires isolation of monocytes/macrophages phages, which is accomplished as follows: Venous blood is collected aseptically in heparinized Vacutainer tubes. Sterile preservative-free heparin is added to a final concentration of 20 units/ml. The blood is diluted 3:1 in Hanks balanced salt solution (HBSS), layered onto lymphocyte separation medium and centrifuged to obtain a band of peripheral blood mononuclear cells (PBMNs). After centrifugation, the mononuclear cell layer is recovered from the interface, washed twice in medium (medium is Roswell Park Memorial Institute [RPMI] 1640 media supplemented with 10% heat-inactivated fetal bovine serum, 50 units/ml penicillin, and 50 μg/ml streptomycin) and monocytes are enumerated by latex ingestion. Monocytes are isolated by adherence in 96-well plastic plates (for 2 hours at 37° C., followed by two cycles of washing with medium). Adherent cells are estimated to be greater than 90% monocytes. […] The tumor cells are maintained in medium in which endotoxin concentration is guaranteed by the manufacturer to be low and is non-stimulatory in the assay.
For studies using autologous tumor cells, these cells are obtained from surgical biopsies, labelled with ^51C, and used in the same way as the hepatoma cells described above. […]

In the case of “GM-CSF: granulocyte macrophage colony stimulating factor”, the “% Cytotoxicity” value in the series with Chang hepatoma cells [1] worked out at 17.8 ± 8%.
With IFN-γ: gamma interferon, the TNF-α release with peritoneal macrophages [2] is about 3000 pg/mL. In the series on peritoneal macrophages [3], the NO production came out at 7 μm. Besides, the TNF in the series on peritoneal macrophages [4] turned out to be 402 pg/mL. In addition, the NO in the series with peritoneal macrophages [5] came to 25.8 ± 1.6 µM.
Take Interleukin-12: interleukin-12: the “% Tumor Cytotoxicity (E/T = 15/1)” value in the series on autologous tumor cells came out at 11%.

B1: Monocyte-CSF: monocyte colony stimulating factor (protein, UniProt P09603 33-554, looked up)
Macrophage colony-stimulating …: EEVSEYCSHMIGSGHLQSLQRLIDSQMETSCQITFEFVDQEQLKDPVCYLKKAFLLVQDIMEDTMRFRDNTPNAIAIVQLQELSLRLKSCFTKDYEEHDKACVRTFYETPLQLLEKVKNVFNETKNLLDKDWNIFSKNCNNSFAECSSQDVVTKPDCNCLYPKAIPSSDPASVSPHQPLAPSMAPVAGLTWEDSEGTEGSSLLPGEQPLHTVDPGSAKQRPPRSTCQSFEPPETPVVKDSTIGGSPQPRPSVGAFNPGMEDILDSAMGTNWVPEEASGEASEIPVPQGTELSPSRPGGGSMQTEPARPSNFLSASSPLPASAKGQQPADVTGTALPRVGPVRPTGQDWNHTPQKTDHPSALLRDPPEPGSPRISSLRPQGLSNPSTLSAQPQLSRSHSSGSVLPLGELEGRRSTRDRRSPAEPEGGPASEGAARPLPRFNSVPLTDTGHERQSEGSFSPQLQESVFHLLVPSVILVLLAVGGLLFYRWRRRSHQEPQRADSPLEQPEGSPLTQDDRQVELPV
On to B1, for which the “% Cytotoxicity” value in the series with Chang hepatoma cells [6] was 14.31 ± 3%. Besides, the “% Tumor Cytotoxicity (E/T = 15/1)” value in the series with autologous tumor cells was found to be 3%.

(Values after patent US6596319B2, “Immunomodulating compositions for treatment of immune system disorders” (Lorus Therapeutics Inc., priority 2001, dated 2003).)
